One substance from patent publication US20210230266A1 can be followed below.

Common to all, as to assay: cell-based or functional assay
Experiment [1] has as its target Mouse IL-11 (mouse) (UniProt P47873).
A further experiment addresses Human IL-11 (human) (UniProt P20809).
The target in experiment [2] is Mouse IL-11 (mouse) (UniProt P47873). The source holds these as a separate data set.
Experiment [3] deals with IL-11:IL-11Rα fusion protein (hyper IL-11) (human).

Like-named read-outs stand apart in the source and are kept apart here.

Chain of Mouse IL-11 (mouse) (P47873 22-199 limits assumed): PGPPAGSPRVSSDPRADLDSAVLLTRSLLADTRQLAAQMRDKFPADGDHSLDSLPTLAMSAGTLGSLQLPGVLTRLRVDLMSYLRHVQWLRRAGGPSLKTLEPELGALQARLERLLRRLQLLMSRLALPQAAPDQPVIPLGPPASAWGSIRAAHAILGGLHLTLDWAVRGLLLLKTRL
Chain of Human IL-11 (human) (P20809 22-199 limits assumed): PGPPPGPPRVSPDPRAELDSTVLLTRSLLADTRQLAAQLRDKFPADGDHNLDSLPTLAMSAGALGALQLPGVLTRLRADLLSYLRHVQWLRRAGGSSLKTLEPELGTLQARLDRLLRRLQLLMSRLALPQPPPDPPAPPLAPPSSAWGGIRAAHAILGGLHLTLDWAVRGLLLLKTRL
Chain of IL-11:IL-11Rα fusion protein (hyper IL-11) (human) (chain, as listed by the source limits assumed): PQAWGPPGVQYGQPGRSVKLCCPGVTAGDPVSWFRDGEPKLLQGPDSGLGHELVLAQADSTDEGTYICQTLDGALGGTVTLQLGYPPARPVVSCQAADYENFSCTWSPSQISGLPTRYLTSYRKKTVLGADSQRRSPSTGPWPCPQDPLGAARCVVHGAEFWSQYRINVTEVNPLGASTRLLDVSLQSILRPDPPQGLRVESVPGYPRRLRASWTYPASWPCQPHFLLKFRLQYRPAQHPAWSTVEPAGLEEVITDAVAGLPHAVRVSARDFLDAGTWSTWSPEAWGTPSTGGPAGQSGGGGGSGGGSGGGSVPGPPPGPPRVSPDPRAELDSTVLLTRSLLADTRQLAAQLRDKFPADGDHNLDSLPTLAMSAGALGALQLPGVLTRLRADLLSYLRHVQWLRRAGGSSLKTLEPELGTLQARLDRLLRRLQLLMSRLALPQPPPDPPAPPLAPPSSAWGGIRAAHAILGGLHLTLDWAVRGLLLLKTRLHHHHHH

“Monoclonal mouse anti-human IL-11 antibody, IgG2A, Clone #22626, Catalog No. MAB218 (R&D Systems)”: in the experiment with Mouse IL-11 (mouse) [1], the fold of αSMA-positive cells relative to unstimulated cells, mouse atrial fibroblasts + TGFβ1 (fold of unstimulated) is 1.44 and the percentage of activated (αSMA-positive) fibroblasts, mouse atrial fibroblasts + TGFβ1 was 43%. In the experiment with Human IL-11 (human), the fold of αSMA-positive cells relative to unstimulated cells, human atrial fibroblasts + TGFβ1 came out at 0.89 times; the fold of αSMA-positive cells relative to unstimulated cells, human atrial fibroblasts + TGFβ1 (fold of unstimulated) came to 0.99; the percentage of activated (αSMA-positive) fibroblasts, human atrial fibroblasts + TGFβ1 is 28.3%. Besides, in the experiment with Mouse IL-11 (mouse) [2], the fold of αSMA-positive cells relative to unstimulated cells, mouse atrial fibroblasts + TGFβ1 (fold of unstimulated) is 1.24 and the percentage of activated (αSMA-positive) fibroblasts, mouse atrial fibroblasts + TGFβ1 came out at 39.4%. Also, in experiment [3], the fold of αSMA-positive cells relative to unstimulated cells, human atrial fibroblasts + hyper IL-11 (fold of unstimulated) is 1.28 and the percentage of activated (αSMA-positive) fibroblasts, human atrial fibroblasts + hyper IL-11 stood at 33.8%.
